{
  "source": "patent US20140235553",
  "key": {"[1]": {"test_system": "NTD-αA crystallin fusion protein"}, "[2]": {"test_system": "NTD-αB crystallin fusion protein"}},
  "data": [
    {"substance": "lysozyme", "values": [
      {"measurement": "CLA: suppression of chemically-induced aggregation of substrate protein", "setting": "[1]", "result": "These proteins also displayed CLA, as evidenced by suppressing the chemically-induced aggregation of substrate proteins such as lysozyme"},
      {"measurement": "CLA: suppression of chemically-induced aggregation of substrate protein", "setting": "[2]", "result": "These proteins also displayed CLA, as evidenced by suppressing the chemically-induced aggregation of substrate proteins such as lysozyme"}
    ]}
  ]
}
